Data taken from the supplement of paper PMC12667976.

B1: library; numbered along this chain (parent)
chain: MATDAALRRLLRLHRTEIAVAVDSAFPLLHALADHDVVPEDKFQETLHLKEKEGCPQAFHALLSWLLTQDSTAILDFWRVLFKDYNLERYGRLQPILDSFPKDVDLSQPRKGRKPPAVPKALVPPPRLPTKRKASEEARAAAPAALTPRGTASPGSQLKAKPPKKPESSAEQQRLPLGNGIQTMSASVQRAVAMSSGDVPGARGAVEGILIQQVFESGGSKKCIQVGGEFYTPSKFEDSGSGKNKARSSSGPKPLVRAKGAQGAAPGGGEARLGQQGSVPAPLALPSDPQLHQKNEDECAVCRDGGELICCDGCPRAFHLACLSPPLREIPSGTWRCSSCLQATVQEVQPRAEEPRPQEPPVETPLPPGLRSAGEEVRGPPGEPLAGMDTTLVYKHLPAPPSAAPLPGLDSSALHPLLCVGPEGQQNLAPGARCGVCGDGTDVLRCTHCAAAFHWRCHFPAGTSRPGTGLRCRSCSGDVTPAPVEGVLAPSPARLAPGPAKDDTASHEPALHRDDLESLLSEHTFDGILQWAIQSMARPAAPFPS

Variants of: B1
Assay: AIRE transcriptional activation functional score (insulin promoter-GFP; nonsense median 0, synonymous median 1) (normalised score); higher = higher AIRE activity (more reporter activation)
Conditions: with insulin promoter-GFP reporter in HEK293
Protocol: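 Deep mutational scan of full-length human AIRE (codon-optimized cDNA, DT-POPCode NNN libraries over three regions) integrated at a Bxb1 landing pad in HEK293 cells carrying an insulin core promoter-GFP reporter at a Flp-In site. Cells were sorted for the top 10% GFP about 14 days after transfection. Variant frequency log-ratios (select vs non-select, TileSeq) were rescaled so that the nonsense median is 0 and the synonymous median is 1, then averaged over biological replicates.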

AIRE transcriptional activation functional score: each site, then its substitutions
L255: A 0.9 | R 0.419 | V 1 | Q 1.01 | N 0.614 | P 1.03 | S 0.79 | E 0.58 | M -0.804 | T 0.506 | C 0.506 | Y 0.945 | F 1.43 | D 0.362 | W 1.1 | H 1.28 | I 0.98 | G 1.24
G260: A 0.8 | D 0.772 | C 1.01 | E 1.03
A246: N 0.102 | S 0.759 | F 1.39 | D 0.858 | W 1.47 | I 0.408 | Y 1.43 | Q -0.0407 | L 1 | T 0.841 | V 1.12 | P 1.05 | C 1.22 | G 0.693 | R 0.482 | H 1.42 | K 0.609 | E 0.55
R247: D 0.268 | P 0.344 | T 0.898 | A 0.732 | L 0.895 | V 1.16 | N 0.919 | I 0.937 | M 1.42 | W 0.502 | E 1.52 | H -1.26 | Q 0.669 | F 0.902 | C 1.05 | Y 0.724 | G 0.529 | S 0.966 | K 1.2
P252: V 1.35 | S 1.03 | M 1.88 | T 0.961 | N 1.41 | H 0.544 | I 0.937 | Q 0.904 | L 1.15 | G 0.0827 | Y 0.649 | W 0.608 | A 1.02 | C 0.763 | R 0.567 | F 0.977 | D 0.862
S248: W 1.01 | K 0.517 | I 1.16 | Y 1.07 | L 1.11 | P 1.33 | Q 0.368 | A 0.947 | C 1.03 | V 0.819 | N 0.778 | M 1.01 | D 1.25 | G 1.13 | F 1.09 | E 0.474 | T 0.975 | R 0.215
K243: C 0.711 | Q 0.804 | D 0.0348 | I 1.02 | G 1.03 | W 1.3 | M 1.31 | H 1.02 | R 1.1 | N 1.06 | L 1.47 | Y -0.257 | V 0.856 | A 0.56 | S 1 | F 0.81 | T 1.08 | P 0.97 | E 0.511
G242: V 1.04 | Q 0.988 | D 0.951 | R 0.611 | T -0.775 | W 0.936 | A 1.19 | C 1.06 | E 0.0818 | Y 1.6 | F 1.23 | S 0.694 | L 1.13 | K 0.747 | I -0.56 | P 0.412
K253: Q 1.95 | N 0.817 | E 0.587 | R 0.777 | T 0.479 | V 0.867 | L 0.694 | W 1.23 | P 0.292 | Y 0.499 | F 0.823 | D -0.542 | S 0.754 | G 0.631 | M 1.04 | A 1.28 | I 0.921 | C 1.39
K245: I 0.196 | W 0.978 | N 0.375 | H 1.35 | C 1 | L 0.453 | T -0.0733 | R 0.472 | G 0.76 | S 0.252 | V 1.32 | Y 1.21 | D 0.145 | E 0.245 | Q 0.887 | P 1.07 | M 0.0585 | F 1.67 | A 1.33
P254: R 0.606
